Measured values as given in patent publication US20250222136A1, “GENE EDITING SYSTEM FOR TREATING USHER SYNDROME” (GenKOre, Inc., priority 2022, published 2025).

B1: Canonical sgRNA: canonical (wild-type, full length) single guide RNA for Cas12f1, SEQ ID NO: 177 (nucleic acid)
guide: CUUCACUGAUAAAGUGGAGAACCGCUUCACCAAAAGCUGUCCCUUAGGGGAUUAGAACUUGAGUGAAGGUGGGCUGCUUGCAUCAGCCUAAUGUCGAGAAGUGCUUUCUUCGGAAAGUAACCCUCGAAACAAAUUCAUUUUUCCUCUCCAAUUCUGCACAAGAAAGUUGCAGAACCCGAAUAGACGAAUGAAGGAAUGCAACNNNNNNNNNNNNNNNNNNNN
modifications: Canonical sgRNA for Cas12f1; misc_feature 203..222 n is a, c, g or u
B2: MS3-3/MS4-3: MF-based engineered sgRNA, SEQ ID NO: 347 (nucleic acid)
guide: ACCGCUUCACCAAAAGCUGUCCCUUAGGGGAUUAGAACUUGAGUGAAGGUGGGCUGCUUGCAUCAGCCUAAUGUCGAGAAGUGCUUUCUUCGGAAAGUAACCCUCGAAACAAAGAAAGGAAUGCAACNNNNNNNNNNNNNNNNNNNN
modifications: Mature form sgRNA with modification of MS3-3/MS4-3; misc_feature 128..147 n is a, c, g or u

How the values were obtained:
[1] = tested on: Target-2 (SEQ ID NO: 359), human endogenous DNA target site; assay: Indel efficiency of CWCas12f1 gene editing system with engineered gRNAs, target sequence 2; format: cell-based
Method: (§1) To this end, each of the modification site MS3 to MS5 in the canonical sgRNA was further subdivided into three sections (see FIG. 2A). By combining one or more of these modifications, engineered gRNAs (see Table 10 in Example 1.2.1) were produced, and the indel activity for each of them was tested. As target sequences for comparing the indel efficiency, two types of human endogenous DNA target sites comprising the PAM sequence recognized as the cleavage site by the CWCas12f1 protein were identified and used, and the specific nucleotide sequences are provided in Table 12 below.
(§2) Next, to obtain a highly efficient engineered single guide RNA for the CWCas12f1 protein, 5′-[…]uuagGGGAUUA […]gaaaGAAUGAAGGAAUGCAA […]-3′ (SEQ ID NO: 337), which is a mature form (hereinafter referred to as ‘MF’) sgRNA, and engineered gRNAs having partial modifications in the nucleotide sequence of the MF sgRNA were produced (see Table 11), and the indel efficiency of the CWCas12f1 gene editing system caused by them was measured.
(§3) Meanwhile, the comparative experiment of indel efficiency of the engineered Cas12f1 proteins in Examples 1.2.2 and 1.2.3 was performed as follows.
(§4) One day before transfection, HEK293T cells, which had been grown in 24-well plates to 80-90% confluency (based on 100φ dishes), were diluted 1/100 and passaged to prepare a volume of 500 μl. A total of 2 μg of DNA (vector+sgRNA transcription cassette targeting DY10) was used per transfection well. The experiment was repeated twice for each group. A transfection mixture was prepared which contains 1.5 μg of plasmid encoding the wild-type Cas12f1 or the engineered Cas12f1, 0.5 μg of the sgRNA transcription cassette, 200 μl of DMEM (excluding FBS and antibiotics), and 6 μl of FuGENE (Promega) reagent.
(§5) DNA and DMEM containing FuGENE reagent were mixed and vortexed, and then incubated for 15 minutes. 200 μl of the thus prepared transfection mixture was used to treat the cells prepared in a 24-well plate, and incubated at 37° C. […]
(§6) Indel frequency was calculated using MAUND provided at ┌https://github.com/ibs-cge/maund┘.

[2] = tested on: Target-1 (SEQ ID NO: 358), human endogenous DNA target site; assay: Indel efficiency of CWCas12f1 gene editing system with engineered gRNAs, target sequence 1; format: cell-based
Method: as §1, §2, §3, §4, §5, §6

Row | Molecule | indel efficiency ([1]; CWCas12f1 protein, Target-2 (SEQ ID NO: 359), gRNAs engineered from canonical sgRNA, FIG. 3B) | indel efficiency ([2]; CWCas12f1 protein, Target-1 (SEQ ID NO: 358), gRNAs engineered from canonical sgRNA, FIG. 3A) | indel efficiency ([1]; CWCas12f1, Target-2, MF-based gRNA with U-rich tail (U4AU4) added to the 3′-end (MS2), FIG. 4D) | indel efficiency ([1]; CWCas12f1, Target-2, gRNAs engineered from mature form (MF) sgRNA, no U-rich tail, FIG. 4C) | indel efficiency ([2]; CWCas12f1, Target-1, MF-based gRNA with U-rich tail (U4AU4) added to the 3′-end (MS2), FIG. 4B) | indel efficiency ([2]; CWCas12f1, Target-1, gRNAs engineered from mature form (MF) sgRNA, no U-rich tail, FIG. 4A)
1 | B1 | did not cause cleavage of the target strand | did not cause cleavage of the target strand |  |  |  | 
2 | B2 |  |  | about 50% | about 20% | about 60% | about 40%
